Assay results from PMC2581932 (Cell, 2008).

B1: Pyrococcus furiosus NurA (enzyme, UniProt Q8U1N8 1-451, looked up)
chain: MRLLSKQSIERITKILLDELENVRENEQIRNIINSWKPLPSPEKSSIYAVDGSRSVSRLSGTVIYFLSALAVGSGKQLRLSYANAIKSNYGTSDQIVRMQMETLENMLGYLAYRKLEGEKRAILMDGTLTGSLVRPPVYPEDIRSLNVMRALIGESDFENLLNEFLEKLRDHYRKVEEHLEKNGNYDSPILTDNVVEKLRKKYIDTKVIAYGSGKVKVKIPRKALGYSPRVIPIEVLESSRGKSVDELLQELDEEKVELYLGKDDIYDALHMTLSYIEYLYSIDKLLEVKNLAYIAKSFYTKTLARTLGVEIVDTALLDAVIRTLIGHEKEGYLEIEHAVVPPKWSFPDFLLSKFRNIEKLIDKGIHLAYVRFEQGDVIYMLQSTTNIEKILPLILHHKAGGYLRPLQLAHHGVKISYKEARHTLEALINALRNRDPALKIFVKYGRSPLE
B2: Pyrococcus furiosus HerA (enzyme, UniProt Q8U1P0 1-551, looked up)
chain: MEEFVGIVRGEASFTSYEFSINPSANVSFGEFVVTKNRDGDLVLGTVRHVKNVNWLLSSVKSNFNSLALDIEEYGESLGENEEVVATVRILGKIEGNELVPNRVPIRNGEYVYKASDDLLQMIYGNDGIEIGTLLLRPNVRIKLDVNELVSRHFAVLAVTGAGKSNAVAVIIKGIVEDVGGTVVVLDPHGDYVNLRLPETGIDLVNIIDGKIRIEDLDPEELADLIGISSSAQIQRHFLSLAWETVKHKNQSLGGESLLEALLDLLNEWISRKTIKYWSEKEGRMKSEDLKSERIETIRGIIFRIRRFLRNYGNIVTSENLVAAIKPGMVNVIDLSPLDENQMKVVVGKFLEAVFEKRVEYEMARKRFEKETSKKKRDEYEEIMTEIESKYPALAYPILVIVEEAHIFAPQGEENDAMRIMGRIAREGRKFGVGLGVVSQRPSKLNEDILSQMNTKIILRIVNPRDQDYVLKASEQLSKDLMDDIAGLGKGEAVIVGQAIKLPALVRIYNFKELRGKAGTGQYGGEDIGILDRWNKMKRNMVNSLDIDIDF

What was measured:
[1] = molecular target: B2; test: SEC
[2] = molecular target: the molecule itself; test: SEC

| stoichiometry N [1] | Binder | binding result [2] |
| --- | --- | --- |
| 1 to 3 NurA monomers per HerA hexamer | B1 |  |
|  | B2 | binds |
